From patent US9144594B2, “Cathepsin L mediated diseases and associated methods and products” (University of Miami, priority 2005, dated 2015)
Where a chain is given by its changes, count along the chain named. Names may count otherwise. “Also recorded” adds a separate entry of the source.

B1: dynK44A: dominant-negative dynamin mutant that cannot bind GTP (protein, UniProt Q05193 1-864, looked up, variant K44A)
Dynamin-1: MGNRGMEDLIPLVNRLQDAFSAIGQNADLDLPQIAVVGGQSAGASSVLENFVGRDFLPRGSGIVTRRPLVLQLVNATTEYAEFLHCKGKKFTDFEEVRLEIEAETDRVTGTNKGISPVPINLRVYSPHVLNLTLVDLPGMTKVPVGDQPPDIEFQIRDMLMQFVTKENCLILAVSPANSDLANSDALKVAKEVDPQGQRTIGVITKLDLMDEGTDARDVLENKLLPLRRGYIGVVNRSQKDIDGKKDITAALAAERKFFLSHPSYRHLADRMGTPYLQKVLNQQLTNHIRDTLPGLRNKLQSQLLSIEKEVEEYKNFRPDDPARKTKALLQMVQQFAVDFEKRIEGSGDQIDTYELSGGARINRIFHERFPFELVKMEFDEKELRREISYAIKNIHGIRTGLFTPDMAFETIVKKQVKKIREPCLKCVDMVISELISTVRQCTKKLQQYPRLREEMERIVTTHIREREGRTKEQVMLLIDIELAYMNTNHEDFIGFANAQQRSNQMNKKKTSGNQDEILVIRKGWLTINNIGIMKGGSKEYWFVLTAENLSWYKDDEEKEKKYMLSVDNLKLRDVEKGFMSSKHIFALFNTEQRNVYKDYRQLELACETQEEVDSWKASFLRAGVYPERVGDKEKASETEENGSDSFMHSMDPQLERQVETIRNLVDSYMAIVNKTVRDLMPKTIMHLMINNTKEFIFSELLANLYSCGDQNTLMEESAEQAQRRDEMLRMYHALKEALSIIGDINTTTVSTPMPPPVDDSWLQVQSVPAGRRSPTSSPTPQRRAPAVPPARPGSRGPAPGPPPAGSALGGAPPVPSRPGASPDPFGPPPQVPSRPNRAPPGVPSRSGQASPSRPESPRPPFDL
B2: dynK694A: dominant activator dynamin mutant impaired in self-assembly (protein)
chain: B1 Dynamin-1 with A44K, K694A
B3: dynR725A: dynamin mutant (SEQ ID NO.4) with impaired GTP hydrolysis capacity (protein, listed as Homo sapiens)
chain: B1 Dynamin-1 with A44K, R725A
B4: dynL356Q, G358V: dynamin mutant (SEQ ID NO.3) not recognized by cathepsin L; ELSGGA mutated to EQSVGA (protein, listed as Homo sapiens)
chain: B1 Dynamin-1 with A44K, L356Q, G358V

Columns and labels:
CatL = experiment: Dynamin p40 fragment in kidney extracts after gene delivery and LPS injection; assay type: in vivo, mouse; details: LPS injected at the time of gene delivery
CatL, sequence (P06797 114-333 limits assumed): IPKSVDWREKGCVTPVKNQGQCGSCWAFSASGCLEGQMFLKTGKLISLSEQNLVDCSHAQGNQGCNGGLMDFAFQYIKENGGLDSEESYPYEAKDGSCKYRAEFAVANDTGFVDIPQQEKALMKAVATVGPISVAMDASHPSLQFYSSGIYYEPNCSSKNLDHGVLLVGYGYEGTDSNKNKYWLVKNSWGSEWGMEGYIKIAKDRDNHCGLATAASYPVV
Description: Next the cleavage pattern of dyn1 in kidney extracts following LPS injection was examined. Kidney cytosols were probed with antibody against the GTPase domain of dynamin, which detects p40. […] Western blotting also detected a dynamin fragment of ˜55 kD. As in cultured podocytes, the presence of this fragment was LPS- and CatL-independent (FIGS. 20B, lane 5 and 20C, lanes 1 and 2), further supporting the idea that it is generated by other proteases during tissue preparation.
Four mice kidneys were homogenized in buffer containing 20 mM HEPES pH 7.5, 100 mM NaCl, 1 mM MgCl2, 1 mM PMSF, proteinase inhibitors, calpain inhibitor (Calbiochem, San Diego, Calif.) and E-64d using dounce homogenizer. Subsequently, cytosol was centrifuged for 10 min at 7000 rpm. Proteins were solubilized by 1% Triton X, 1 h at 4° C., before it was spun at 50,000 rpm for 1 h.
CatL plasmids encoding short and long CatL (Goulet et al., Biol Chem 387, 1285-1293 (2004)), Dyn1 plasmids (pcDNA-driven) or p2.5 Podocin-driven (Moeller et al., Genesis 35, 39-42 (2003)) were introduced into mice (n>10, each construct) using the TransIT in vivo gene delivery system according to the manufacturer's instruction (Mirus Bio Corporation, Madison, Wis.). 10 and 24 h after gene delivery, proteinuria was assessed by Multistix 8 SG strips (Bayer Corporation, Elkhart, Ind.), and Bradford protein assay (Sigma, Saint Louis, Mo.). From the same urines the protein creatinine ratio was determined with Albuwell M and Creatinine Companion protein creatinine ELISA kits (Exocell Inc., Philadelphia, Pa.).

podocytes = experiment: Actin stress fiber staining in cultured podocytes; assay type: cell-based, mouse; details: for actin stress fibers, in words: overexpression in cultured podocytes
Description: This study examined the role of dynamin in actin dynamics of podocytes. An adenoviral expression system was utilized to obtain expression of various dynamin mutants with more than 90% infection efficiency in cultured differentiated mouse podocytes and analyzed the organization of the actin cytoskeleton, their migratory and endocytotic behavior (FIG. 1). […] This type of actin rearrangement in cultured podocytes is resembling actin rearrangement in damaged podocytes during proteinuria in situ (Smoyer and Mundel, 1998). […] Thus, the consequence on actin dynamics in podocytes was examined when dynamin is hyperactive by expressing known dominant activators, dynK694A and dynR725A (SEQ ID NO.4). Both mutants are predicted to live longer in the GTP-bound form. […] To further examine this surprising phenotype in a biological context, motility assays were performed next using a modified Boyden Chamber assay.
Since podocyte FP effacement is primarily driven by the rearrangement of the actin cytoskeleton (Asanuma et al., 2006), actin morphology was examined in cultured podocytes expressing different dynamin mutants. Podocytes were infected with various dynamin constructs using an adenoviral expression system that enables greater than 90% efficiency of infection. The experiments were performed using dyn1 (FIG. 22) as well as dyn2, with identical results. […] Thus, treatments which abolish actin stress fibers in cultured podocytes cause proteinuria in mice. […] Consistent with this notion, the deleterious effects of LPS (which reduces stress fibers) on kidney function were ameliorated by expression of dynR725A (which induces stress fibers).
Podocytes were grown under non-permissive conditions to 70% confluence. Cells were washed twice with 1×PBS and infected with 1.2 ml of serum-free DMEM media containing 100 μl transactivator virus, 100 μl virus expressing dyn1 or dyn2. After 2 h of infection at 37° C., media containing virus was replaced with full DMEM. If cells were treated with LPS or PAN, 50 μg/ml of LPS or 50 μg/ml PAN was added at this point. 18-24 h post-infection, cells were detached using trypsin and processed either for subcellular fractionation or tested in the motility assays as described in (Reiser et al., J Biol Chem 279, 34827-34832 (2004)). When stated, 20 μM of Z-FF-FMK CatL specific inhibitor (Calbiochem, San Diego, Calif.) was added simultaneously with addition of LPS.

podocyte FP = experiment: Podocyte foot process architecture by electron microscopy after gene delivery; assay type: in vivo, mouse; details: gene delivery into wildtype mice
Description: Next it was explored whether gene delivery of dynamin mutants dynR725A and dynL356Q, G358V into mice can be expressed in podocytes and if this procedure can affect podocyte FP architecture and function. First, we needed to establish a safe and reliable detection system of transferred gene expression in podocytes. Therefore we analyzed which dynamin isoforms are expressed in podocytes by RT-PCR. Podocytes express mainly dynamin 2 and little dynamin 3 but no dynamin 1 (FIG. 5A). Gene-transfer CMV promotor driven dynamin 1 constructs were used because neuronal dynamin protein is normally not expressed in podocytes and could be easily tracked by a specific monoclonal dynamin 1 antibody (FIG. 5B). […] Monoclonal dynamin antibodies MAB 5402 […] were used, which predominantly recognize dynamin 1 (FIG. 5B). Labeling of glomerular sections with MAB 5402 detected some minimal background labeling of dynamin, representing endogenous dynamin 2 (FIG. 5C). The gene transfer of dynamin 1 expression vectors led to a strong expression of dynamin 1 in glomerular cells including podocytes (FIG. 5D). Some of this labeling was also detected in podocytes, which are marked positively by synaptopodin staining, resulting in a yellow staining pattern (FIG. 5E).

| Molecule | generation of p40 in kidney extracts, in words (CatL) | actin stress fibers, in words (podocytes) | podocyte FP architecture, in words (podocyte FP) | loss of stress fibers under LPS or PAN, in words (podocytes; LPS and PAN treatment) |
| --- | --- | --- | --- | --- |
| dynWT: wild type dynamin overexpressed by adenovirus or delivered as dynamin 1 cDNA | generation of p40 | did not dramatically alter stress fiber pattern; also recorded: did not significantly alter the F-actin staining pattern | did not result in changes of podocyte FP architecture |  |
| B1 |  | loss of stress fibers; also recorded: abolished stress fibers | induced a severe rearrangement of the actin based podocyte FPs |  |
| B2 |  | did not dramatically change actin stress fibers |  |  |
| B3 | did not result in generation of p40 | significantly induced stress fibers formation; also recorded: decreasing cortical actin and inducing stress fibers | resulted in partial FP effacement | prevented the loss of actin stress fibers; also recorded: inhibited the ability of LPS to reduce stress fibers |
| B4 | not generated | did not significantly alter the F-actin staining pattern | did not show any significant changes in podocyte FP structure |  |
